No end group written: not given here. *: point of attachment. FITC = O=C1OC2(c3ccc(O)cc3Oc3cc(O)ccc32)c2ccc(NC(=S)*)cc21

These results are taken from publication doi:10.1101/2020.06.05.136150 (bioRxiv, 2020).

The target in test [1] is T1, PBP1bγ (E. coli, UniProt P02919-2 1-799).
T1 sequence: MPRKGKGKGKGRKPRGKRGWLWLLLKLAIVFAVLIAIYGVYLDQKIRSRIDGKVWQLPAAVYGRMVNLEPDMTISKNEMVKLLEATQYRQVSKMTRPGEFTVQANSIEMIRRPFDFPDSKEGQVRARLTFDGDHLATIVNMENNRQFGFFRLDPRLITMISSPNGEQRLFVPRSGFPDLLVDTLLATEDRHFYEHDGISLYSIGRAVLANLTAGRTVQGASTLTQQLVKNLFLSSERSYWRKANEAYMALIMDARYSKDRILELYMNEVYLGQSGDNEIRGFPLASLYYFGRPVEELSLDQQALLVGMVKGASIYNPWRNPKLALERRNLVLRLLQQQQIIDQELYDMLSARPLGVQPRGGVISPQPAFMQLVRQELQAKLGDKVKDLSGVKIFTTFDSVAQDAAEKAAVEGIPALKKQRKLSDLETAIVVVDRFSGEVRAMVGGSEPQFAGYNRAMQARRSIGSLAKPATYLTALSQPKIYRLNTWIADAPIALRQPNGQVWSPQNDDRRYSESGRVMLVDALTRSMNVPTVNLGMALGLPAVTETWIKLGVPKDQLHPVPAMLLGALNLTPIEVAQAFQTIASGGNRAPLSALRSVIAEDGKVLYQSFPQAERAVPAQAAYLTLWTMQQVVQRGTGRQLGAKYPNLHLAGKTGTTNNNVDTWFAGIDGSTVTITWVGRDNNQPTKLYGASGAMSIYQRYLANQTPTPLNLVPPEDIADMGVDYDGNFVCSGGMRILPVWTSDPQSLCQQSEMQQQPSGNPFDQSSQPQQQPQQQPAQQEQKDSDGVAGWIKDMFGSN
The experiment in a line: fluorescence polarisation. (Fluorescence polarisation rises when a labelled molecule tumbles more slowly, as on binding a larger partner.)

Test [2] addresses T2, PBP1b (58-804) (E. coli, UniProt P02919 58-804).
T2 sequence: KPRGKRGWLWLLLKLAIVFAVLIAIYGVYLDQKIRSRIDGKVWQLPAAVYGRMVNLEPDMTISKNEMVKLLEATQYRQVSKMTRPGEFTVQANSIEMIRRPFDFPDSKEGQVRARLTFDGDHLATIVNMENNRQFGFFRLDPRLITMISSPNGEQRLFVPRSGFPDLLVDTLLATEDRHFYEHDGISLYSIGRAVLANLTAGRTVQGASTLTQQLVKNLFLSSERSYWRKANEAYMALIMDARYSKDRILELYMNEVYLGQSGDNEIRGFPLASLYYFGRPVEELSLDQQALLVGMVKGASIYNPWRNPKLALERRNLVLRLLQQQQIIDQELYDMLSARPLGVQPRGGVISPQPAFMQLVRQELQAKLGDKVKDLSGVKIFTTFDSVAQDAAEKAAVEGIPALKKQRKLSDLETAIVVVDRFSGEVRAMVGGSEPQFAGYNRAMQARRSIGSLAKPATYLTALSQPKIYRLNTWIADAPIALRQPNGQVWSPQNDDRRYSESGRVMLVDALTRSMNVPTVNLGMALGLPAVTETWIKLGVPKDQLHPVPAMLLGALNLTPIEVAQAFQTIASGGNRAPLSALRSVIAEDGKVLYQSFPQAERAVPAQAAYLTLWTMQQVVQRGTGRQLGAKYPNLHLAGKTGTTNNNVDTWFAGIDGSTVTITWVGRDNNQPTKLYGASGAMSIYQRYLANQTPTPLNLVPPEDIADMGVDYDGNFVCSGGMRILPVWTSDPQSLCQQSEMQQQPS
Briefly: crystal structure.

One may read the Kd as the free concentration of one partner at which half of the binding sites on the other are occupied at equilibrium, for simple one-to-one binding. The molecule {FITC}-KVTGNGLPPKPEERWRYIKELESRQ [FITC labeled peptide (FITC-K69-Q93) of FtsN] had a Kd in test [1] of 8.1 ± 1.7 µM. Take LPPKPEERWRYIKELESRQ [^EFtsN peptide (L75-Q93), unlabeled]: the binding result in test [2] is “binds”.
